The values that follow are results of earlier work, collected in publication PMC10671529.

The target of one data set is HigB2 (Vibrio cholerae) (UniProt Q9KMA6).
The target of another data set is Im9 (Escherichia coli) (UniProt P13479).
Sequence of UniProt P13479 (P13479 whole entry): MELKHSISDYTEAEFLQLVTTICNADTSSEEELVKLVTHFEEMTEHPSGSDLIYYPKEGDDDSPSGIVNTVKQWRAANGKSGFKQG

Sequence of UniProt Q9KMA6 (Q9KMA6 whole entry): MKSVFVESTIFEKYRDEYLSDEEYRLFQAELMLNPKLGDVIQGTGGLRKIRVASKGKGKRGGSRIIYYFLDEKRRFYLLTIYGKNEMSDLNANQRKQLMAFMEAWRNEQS

As for HigA2 (from UniProt Q9KMA5), in the data set with HigB2 (Vibrio cholerae), the Kd was 3.1 pM.
colicin E9 DNase (from UniProt P09883): the Kd with Im9 (Escherichia coli) is 0.023 pM.
